Measured values: paper doi:10.1101/2022.12.12.520143

Target: GDP-L-galactose phosphorylase 1 (GGP1) with His6, expressed in E. coli (Solanum lycopersicum (tomato))

PAS/LOV protein (PLP) with His6, expressed in tobacco (natural protein)
inhibition of GGP activity by PLP incubated 2 h in darkness before mixing: 86%
